From patent publication US11021687B2, “Production of differentiated enteroendocrine cells and insulin producing cells” (Massachusetts Institute of Technology, priority 2016, dated 2021)

Key:
Assay type in all cases: cell-based, mouse
[1] = test system: gastrointestinal stem cells; test: Insulin / Nkx6.1 mRNA expression (qPCR), 3-stage conversion to insulin producing cells; details: added in Stage 1, combined with RepSox
Excerpt: “mRNA Insulin Expression Assay” refers to an assay used to determine the relative insulin mRNA expression level of a cell population. For example, the assay can determine the insulin mRNA level expressed in a cell population treated to increase the expression of insulin in the cells, as compared to an untreated population of cells. In an exemplary mRNA Insulin Expression Assay, the cells were collected and the RNA is extracted from the cells using an RNA extraction kit (such as RNeasy Mini kit, Qiagen). The insulin expression level is then assessed by Quantitative real-time PCR using a one-step qPCR kit (such as QuantiTech Probe PCR kit, Qiagen) and Ins1 or Ins2 primers and probes (such as the commercially available TaqMan probe for mouse Ins1 and Ins2, Life Technologies). The relative insulin mRNA expression can be determined relative to a baseline or other marker, such as Hprt mRNA expression level or other baseline marker.
Organoids or differentiated cells were harvested and RNA was extracted using RNeasy Micro Kit (Qiagen) according to the manufacturer's instruction. Quantitative real-time PCR was performed with QuantiTect Probe PCR kit (Qiagen) using commercially available primers and TaqMan probes (Life Technologies). […]

[2] = test system: intestinal stem cells; test: Ngn3 mRNA expression during EEC differentiation; details: 2 days
Experimental: “Ngn3 Assay” as used herein is an assay used to determine the extent of expression of Ngn3 in cells, such as cells subjected to a differentiation protocol. In an exemplary Ngn3 Assay, RNA is isolated from cells that have been cultured according to a differentiation protocol, and quantitative real-time PCR is performed using commercially available primers and probes (such as Taqman probes) to determine an extent of Ngn3 expression in the cells.
(§1) Organoids or differentiated cells were harvested and RNA was extracted using RNeasy Micro Kit (Qiagen) according to the manufacturer's instruction. Quantitative real-time PCR was performed with QuantiTect Probe PCR kit (Qiagen) using commercially available primers and TaqMan probes (Life Technologies).
There has been prior speculation that Ngn3 positive secretory progenitors differentiate to EECs (Genes Dev. 2002).

[3] = test system: intestinal stem cells; test: mRNA expression (qPCR) of ChgA and other lineage markers in differentiated intestinal stem cells; details: Noggin in step 2
Excerpt: “mRNA ChgA Expression Assay” refers to an assay used to determine the relative ChgA mRNA expression level in a cell population. For example, the assay can determine ChgA mRNA expression level of a differentiated cell population following treatment with agents being tested, as compared to an untested population of post-natal stem cells. In an example of an mRNA ChgA Expression Assay, the cells were collected and the RNA is extracted from the cells using an RNA extraction kit (such as RNeasy Mini kit, Qiagen). The ChgA expression level is then assessed by Quantitative real-time PCR using a one-step qPCR kit (such as QuantiTech Probe PCR kit, Qiagen) and ChgA primers and probes (such as commercially available Taqman probe for mouse ChgA, Life Technologies).
as §1
Cells were then cultured with EGF, Noggin, and DAPT (END), as well as small molecules. After 2-3 days of differentiation, the cells lysed and ChgA expression was measured by qRT-PCR.
Small molecules were further validated using a 24-well plate culture and the differentiation system. […]

B1: FGF10: growth factor added in Stage 1 (protein, UniProt O15520 38-208, looked up)
Fibroblast growth factor 10: QALGQDMVSPEATNSSSSSFSSPSSAGRHVRSYNHLQGDVRWRKLFSFTKYFLKIEKNGKVSGTKKENCPYSILEITSVEIGVVAVKAINSNYYLAMNKKGKLYGSKEFNNDCKLKERIEENGYNTYASFNWQHNGRQMYVALNGKGAPRRGQKTRRKNTSAHFLPMVVHS
Insulin expression [1]: further increased

B2: R-spondin1: Wnt activator, a protein belonging to the R-Spondin family (protein, UniProt Q2MKA7 21-263, looked up)
R-spondin-1: SRGIKGKRQRRISAEGSQACAKGCELCSEVNGCLKCSPKLFILLERNDIRQVGVCLPSCPPGYFDARNPDMNKCIKCKIEHCEACFSHNFCTKCKEGLYLHKGRCYPACPEGSSAANGTMECSSPAQCEMSEWSPWGPCSKKQQLCGFRRGSEERTRRVLHAPVGDHAACSDTKETRRCTVRRVPCPEGQKRRKGGQGRRENANRNLARKESKEAGAGSRRRKGQQQQQQQGTVGPLTSAGPA
Ngn3 expression on removal of R-spondin1 [2]: strong reduction

B3: Noggin: growth factor (protein, UniProt Q13253 28-232, looked up)
Noggin: QHYLHIRPAPSDNLPLVDLIEHPDPIFDPKEKDLNETLLRSLLGGHYDPGFMATSPPEDRPGGGGGAAGGAEDLAELDQLLRQRPSGAMPSEIKGLEFSEGLAQGKKQRLSKKLRRKLQMWLWSQTFCPVLYAWNDLGSRFWPRYVKVGSCFSKRSCSVPEGMVCKPSKSVHLTVLRWRCQRRGGQRCGWIPIQYPIISECKCSC
effect on EEC differentiation [3]: marginal
